Reference: the supplement of paper PMC7877785
± gives the uncertainty stated by the source.

Experiment: self-splicing fitness, log relative to wild type (ln ratio); higher = more splicing; Tetrahymena group I intron in knt gene, E. coli kanamycin selection, DiMSum; sequences stand for … in CUCUCU…GGAGGGAAAAGUUAUCAGGCAUGCACCUGGUAGCUAGUCUUUAAACCAAUAGAUUGCAUCGGUUUAAAAGGCAAGACCGUCAAAUUGCGGGAAAGGGGUCAACAGCCGUUCAGUACCAAGUCUCAGGGGAAACUUUGAGAUGGCCUUGCAAAGGGUAUGGUAAUAAGCUGACGGACAUGGUCCUAACCACGCAGCCAAGUCCUAAGUCAACAGAUCUUCUGUUGAUAUGGAUGCAGUUCACAGACUAAAUGUCGGUCGGGGAAGAUGUAUUCUUCUCAUAAGAUAUAGUCGGACCUCUCCUUAAUGGGAGCUAGCGGAUGAAGUGAUGCAACACUGGAGCCGCUGGGAACUAAUUUGUAUGCGAAAGUAUAUUGAUUAGUUUUGGAGUACUCGUGGUCG
Procedure, shortened: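 Six replicate transformations of E. coli BL21(DE3) with a pET-22b(+) library were grown overnight at 37°C or 30°C. The library randomised all eight P1ex-region intron nucleotides, the intron lying in the knt kanamycin-resistance gene, and plates were LB agar with or without 25 μg/mL kanamycin plus 100 μg/mL carbenicillin, 50 μM IPTG and 0.2% rhamnose. Pooled colonies were amplicon-sequenced on an Illumina HiSeq 2500, and fitness is the DiMSum error-weighted combination of wild-type-normalised replicate fold changes, kanamycin versus none.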

Row | Sequence | self-splicing fitness (ln) (30 °C) | self-splicing fitness (ln) (37 °C)
1 | GUCCAGCAAUAUUACGGUCU | -2.7 ± 0.12 | -1.2 ± 0.12
2 | GUCCAGCAAUAUUACGUAGU | -0.119 ± 0.062 | 0.398 ± 0.08
3 | GUCCAGCAAUAUUACGUCCU | -1.77 ± 0.13 | -0.83 ± 0.12
4 | GUCCAGCAAUAUUACGUGCC | -1.16 ± 0.086 | -0.944 ± 0.11
5 | GUCCAGCAAUAUUACGUUGU | -0.537 ± 0.051 | 0.244 ± 0.066
6 | GUCCAGCAAUAUUACGUUUA | -0.851 ± 0.08 | -0.0697 ± 0.076
7 | GUCCAGCAAUAUUACGUUUU | -1.19 ± 0.052 | -0.221 ± 0.069
8 | GUCGAGCAAUAUUACGAAAU |  | -1.29 ± 0.49
9 | GUCGAGCAAUAUUACGAAGA | -3.82 ± 0.43 | -1.74 ± 0.31
10 | GUCGAGCAAUAUUACGACGG |  | -1.72 ± 0.43
11 | GUCGAGCAAUAUUACGAGAC |  | 0.237 ± 0.43
12 | GUCGAGCAAUAUUACGAUCC | -1.82 ± 0.17 | -0.489 ± 0.22
13 | GUCGAGCAAUAUUACGAUGC | -1.17 ± 0.18 | -1.09 ± 0.18
14 | GUCGAGCAAUAUUACGCCUA |  | -1.1 ± 0.41
15 | GUCGAGCAAUAUUACGCGAA | -1.39 ± 0.17 | 0.0361 ± 0.17
16 | GUCGAGCAAUAUUACGCGAG | -0.678 ± 0.096 | -0.901 ± 0.12
17 | GUCGAGCAAUAUUACGCUCA | -0.929 ± 0.21 | -0.388 ± 0.22
18 | GUCGAGCAAUAUUACGCUUU | -1.81 ± 0.18 | -1.92 ± 0.2
19 | GUCGAGCAAUAUUACGGAGU | -3.59 ± 0.19 | -0.791 ± 0.094
20 | GUCGAGCAAUAUUACGGAUU | -2.03 ± 0.26 | -0.691 ± 0.21
21 | GUCGAGCAAUAUUACGGCAC | -1.29 ± 0.18 | -0.213 ± 0.2
22 | GUCGAGCAAUAUUACGGCUU |  | -0.65 ± 0.49
23 | GUCGAGCAAUAUUACGGUUU | -1.86 ± 0.11 | -1.44 ± 0.13
24 | GUCGAGCAAUAUUACGUAGA | -2.65 ± 0.17 | -1.88 ± 0.24
25 | GUCGAGCAAUAUUACGUAGC | -1.18 ± 0.16 | -0.606 ± 0.22
26 | GUCGAGCAAUAUUACGUAUA | -3.54 ± 0.25 | -1.63 ± 0.18

Row | Sequence | self-splicing fitness (ln) (30 °C) | self-splicing fitness (ln) (37 °C)
27 | GUCGAGCAAUAUUACGUCAA | -2.62 ± 0.29 | -2.32 ± 0.22
28 | GUCGAGCAAUAUUACGUCAG | -3.08 ± 0.16 | -2.98 ± 0.19
29 | GUCGAGCAAUAUUACGUCUA | -1.76 ± 0.46 | -0.965 ± 0.33
30 | GUCGAGCAAUAUUACGUGCG | -2.9 ± 0.17 | -2 ± 0.17
31 | GUCGAGCAAUAUUACGUUCG | -3.55 ± 0.3 | -1.86 ± 0.25
32 | GUCUAGCAAUAUUACGAAUG | -2.56 ± 0.21 | -1.43 ± 0.19
33 | GUCUAGCAAUAUUACGACAG | -2.33 ± 0.18 | -1.71 ± 0.3
34 | GUCUAGCAAUAUUACGAUAA | -1.09 ± 0.22 | 0.55 ± 0.23
35 | GUCUAGCAAUAUUACGAUGG | -3.48 ± 0.17 | -0.823 ± 0.17
36 | GUCUAGCAAUAUUACGCACU | -0.628 ± 0.047 | 0.389 ± 0.063
37 | GUCUAGCAAUAUUACGCAGC | -2.29 ± 0.14 | -0.0809 ± 0.12
38 | GUCUAGCAAUAUUACGCCAG | -2.46 ± 0.4 | 
39 | GUCUAGCAAUAUUACGCCUC | -0.0816 ± 0.058 | -0.181 ± 0.068
40 | GUCUAGCAAUAUUACGCGCU | -1.29 ± 0.19 | -0.353 ± 0.15
41 | GUCUAGCAAUAUUACGCGUU | -0.17 ± 0.063 | -0.000183 ± 0.069
42 | GUCUAGCAAUAUUACGGAAC | -1.15 ± 0.26 | 1.15 ± 0.16
43 | GUCUAGCAAUAUUACGGAGC | -1.04 ± 0.15 | -1.02 ± 0.18
44 | GUCUAGCAAUAUUACGGCCU | -2.09 ± 0.19 | -1.19 ± 0.16
45 | GUCUAGCAAUAUUACGGUAG |  | -1.54 ± 0.26
46 | GUCUAGCAAUAUUACGGUUC | -0.596 ± 0.089 | 0.433 ± 0.096
47 | GUCUAGCAAUAUUACGGUUG | -2.54 ± 0.092 | -1.53 ± 0.1
48 | GUCUAGCAAUAUUACGUAAU | -0.317 ± 0.1 | 0.597 ± 0.12
49 | GUCUAGCAAUAUUACGUAUA | -1.41 ± 0.13 | -0.887 ± 0.12
50 | GUCUAGCAAUAUUACGUCAC | -2.9 ± 0.24 | -3.04 ± 0.43
51 | GUCUAGCAAUAUUACGUCUC | 0.162 ± 0.096 | -0.048 ± 0.096
52 | GUCUAGCAAUAUUACGUGCA | -1.38 ± 0.096 | -0.535 ± 0.1

Row | Sequence | self-splicing fitness (ln) (30 °C) | self-splicing fitness (ln) (37 °C)
53 | GUCUAGCAAUAUUACGUGUG | -0.5 ± 0.063 | -0.649 ± 0.079
54 | GUCUAGCAAUAUUACGUUGA | -1.64 ± 0.2 | -1.12 ± 0.23
55 | GUCUAGCAAUAUUACGUUGU | -0.779 ± 0.055 | -0.582 ± 0.065
56 | GUGAAGCAAUAUUACGAAAU | -0.716 ± 0.11 | -0.0167 ± 0.12
57 | GUGAAGCAAUAUUACGAAUA | -1.91 ± 0.1 | -0.485 ± 0.23
58 | GUGAAGCAAUAUUACGAAUU | -0.957 ± 0.18 | -0.439 ± 0.21
59 | GUGAAGCAAUAUUACGAGGA |  | -0.805 ± 0.32
60 | GUGAAGCAAUAUUACGAUGG | -2.31 ± 0.11 | 0.388 ± 0.13
61 | GUGAAGCAAUAUUACGCCAU | -2.07 ± 0.13 | -1.14 ± 0.15
62 | GUGAAGCAAUAUUACGCGGA | -1.24 ± 0.09 | -1.13 ± 0.14
63 | GUGAAGCAAUAUUACGCGGU | -3.01 ± 0.28 | -0.0814 ± 0.17
64 | GUGAAGCAAUAUUACGGAAC | 0.76 ± 0.34 | 
65 | GUGAAGCAAUAUUACGGCCU | 0.395 ± 0.068 | 0.277 ± 0.085
66 | GUGAAGCAAUAUUACGGGAG | -2.09 ± 0.1 | -0.567 ± 0.094
67 | GUGAAGCAAUAUUACGGGGC | -2.91 ± 0.23 | -3.35 ± 0.35
68 | GUGAAGCAAUAUUACGGGUA | -0.994 ± 0.068 | -1.23 ± 0.1
69 | GUGAAGCAAUAUUACGGGUG | -1.39 ± 0.075 | -0.589 ± 0.11
70 | GUGAAGCAAUAUUACGGUCC | -0.351 ± 0.15 | -0.0265 ± 0.18
71 | GUGAAGCAAUAUUACGUCCC | -1.28 ± 0.35 | -0.367 ± 0.2
72 | GUGAAGCAAUAUUACGUUAA | -2.09 ± 0.12 | -1.74 ± 0.14
73 | GUGCAGCAAUAUUACGAACC | -1.94 ± 0.3 | 0.395 ± 0.48
74 | GUGCAGCAAUAUUACGAGAA |  | -2.25 ± 0.3
75 | GUGCAGCAAUAUUACGAGGG | -2.79 ± 0.21 | -1.87 ± 0.27
76 | GUGCAGCAAUAUUACGAUGU | -0.56 ± 0.067 | -0.37 ± 0.073
77 | GUGCAGCAAUAUUACGAUUC | 0.476 ± 0.074 | -0.403 ± 0.073
78 | GUGCAGCAAUAUUACGCACA | -3.26 ± 0.18 | -1.67 ± 0.12
